Experimental data published in paper PMC10397247.
Each block holds one binder with its values, some of them ahead of it.

Assays:
Experiment in all cases: two-hybrid library CCmax;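 note: natural log of median RNA to DNA barcode read ratio; higher means stronger binding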
4H656-AA = target: T1, 4H656-AA; conditions: mean of both orientations
T1 chain: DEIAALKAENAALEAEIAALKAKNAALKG

4H391-AA = target: T2, 4H391-AA; conditions: mean of both orientations
T2 chain: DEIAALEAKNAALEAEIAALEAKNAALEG

4H3417-AA = target: T3, 4H3417-AA
T3 chain: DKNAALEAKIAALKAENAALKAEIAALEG

4H478-AA = target: T4, 4H478-AA; conditions: mean of both orientations
T4 chain: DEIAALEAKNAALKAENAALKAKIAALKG

4H497-AA = target: T5, 4H497-AA; conditions: mean of both orientations
T5 chain: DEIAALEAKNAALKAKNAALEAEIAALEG

4H428-AA = target: T6, 4H428-AA; conditions: mean of both orientations
T6 chain: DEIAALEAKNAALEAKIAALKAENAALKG

4H3920-AA = target: T7, 4H3920-AA; conditions: mean of both orientations
T7 chain: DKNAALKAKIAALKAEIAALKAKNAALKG

4H675-AA = target: T8, 4H675-AA; conditions: mean of both orientations
T8 chain: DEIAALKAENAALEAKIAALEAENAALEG

4H3628-AA = target: T9, 4H3628-AA; conditions: mean of both orientations
T9 chain: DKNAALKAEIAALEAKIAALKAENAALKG

4H971-AA = target: T10, 4H971-AA; conditions: mean of both orientations
T10 chain: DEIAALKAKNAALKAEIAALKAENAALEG

4H3939-AA = target: T11, 4H3939-AA; conditions: mean of both orientations
T11 chain: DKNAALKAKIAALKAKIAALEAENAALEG

4H3591-AA = target: T12, 4H3591-AA; conditions: mean of both orientations
T12 chain: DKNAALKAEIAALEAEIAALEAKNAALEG

4H3709-AA = target: T13, 4H3709-AA; conditions: mean of both orientations
T13 chain: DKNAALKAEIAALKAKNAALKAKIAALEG

4H3666-AA = target: T14, 4H3666-AA; conditions: mean of both orientations
T14 chain: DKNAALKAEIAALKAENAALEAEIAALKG

4H3446-AA = target: T15, 4H3446-AA; conditions: mean of both orientations
T15 chain: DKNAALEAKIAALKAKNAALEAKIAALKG

4H2837-AA = target: T16, 4H2837-AA; conditions: mean of both orientations
T16 chain: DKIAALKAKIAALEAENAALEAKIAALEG

4H717-AA = target: T17, 4H717-AA; conditions: mean of both orientations
T17 chain: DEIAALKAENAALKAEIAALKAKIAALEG

4H605-AA = target: T18, 4H605-AA; conditions: mean of both orientations
T18 chain: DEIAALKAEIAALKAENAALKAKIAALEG

4H3655-AA = target: T19, 4H3655-AA; conditions: mean of both orientations
T19 chain: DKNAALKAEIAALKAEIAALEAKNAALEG

4H3343-AA = target: T20, 4H3343-AA; conditions: mean of both orientations
T20 chain: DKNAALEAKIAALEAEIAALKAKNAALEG

4H3427-AA = target: T21, 4H3427-AA; conditions: mean of both orientations
T21 chain: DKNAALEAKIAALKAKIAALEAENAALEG

4H3627-AA = target: T22, 4H3627-AA; conditions: mean of both orientations
T22 chain: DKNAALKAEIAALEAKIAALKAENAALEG

4H906-AA = target: T23, 4H906-AA; conditions: mean of both orientations
T23 chain: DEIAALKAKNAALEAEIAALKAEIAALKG

4H3844-AA = target: T24, 4H3844-AA; conditions: mean of both orientations
T24 chain: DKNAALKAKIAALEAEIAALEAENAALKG

4H317-AA = target: T25, 4H317-AA; conditions: mean of both orientations
T25 chain: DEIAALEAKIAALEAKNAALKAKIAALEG

4H2617-AA = target: T26, 4H2617-AA
T26 chain: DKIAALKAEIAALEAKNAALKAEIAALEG

4H881-AA = target: T27, 4H881-AA; conditions: mean of both orientations
T27 chain: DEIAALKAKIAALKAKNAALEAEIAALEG

4H678-AA = target: T28, 4H678-AA; conditions: mean of both orientations
T28 chain: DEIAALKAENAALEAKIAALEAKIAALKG

4H3606-AA = target: T29, 4H3606-AA; conditions: mean of both orientations
T29 chain: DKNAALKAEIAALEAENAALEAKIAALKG

4H2949-AA = target: T30, 4H2949-AA; conditions: mean of both orientations
T30 chain: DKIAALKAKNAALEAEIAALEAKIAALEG

4H342-AA = target: T31, 4H342-AA; conditions: mean of both orientations
T31 chain: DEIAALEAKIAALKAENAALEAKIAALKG

4H780-AA = target: T32, 4H780-AA; conditions: mean of both orientations
T32 chain: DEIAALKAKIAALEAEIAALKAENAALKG

4H993-AA = target: T33, 4H993-AA; conditions: mean of both orientations
T33 chain: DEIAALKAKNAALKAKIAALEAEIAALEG

4H566-AA = target: T34, 4H566-AA; conditions: mean of both orientations
T34 chain: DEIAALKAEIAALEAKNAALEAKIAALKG

4H335-AA = target: T35, 4H335-AA; conditions: mean of both orientations
T35 chain: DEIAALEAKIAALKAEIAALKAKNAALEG

4H48-AA = target: T36, 4H48-AA; conditions: mean of both orientations
T36 chain: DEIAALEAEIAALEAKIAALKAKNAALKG

4H3921-AA = target: T37, 4H3921-AA; conditions: mean of both orientations
T37 chain: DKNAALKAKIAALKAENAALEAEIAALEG

4H2754-AA = target: T38, 4H2754-AA; conditions: mean of both orientations
T38 chain: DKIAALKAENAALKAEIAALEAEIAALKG

4H3112-AA = target: T39, 4H3112-AA
T39 chain: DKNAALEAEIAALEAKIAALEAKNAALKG

4H2944-AA = target: T40, 4H2944-AA; conditions: mean of both orientations
T40 chain: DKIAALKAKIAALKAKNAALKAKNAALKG

4H794-AA = target: T41, 4H794-AA; conditions: mean of both orientations
T41 chain: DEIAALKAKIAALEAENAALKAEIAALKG

4H2883-AA = target: T42, 4H2883-AA; conditions: mean of both orientations
T42 chain: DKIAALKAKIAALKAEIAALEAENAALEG

4H429-AA = target: T43, 4H429-AA; conditions: mean of both orientations
T43 chain: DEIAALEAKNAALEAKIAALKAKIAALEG

4H2642-AA = target: T44, 4H2642-AA; conditions: mean of both orientations
T44 chain: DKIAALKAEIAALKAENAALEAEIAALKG

4H2729-AA = target: T45, 4H2729-AA; conditions: mean of both orientations
T45 chain: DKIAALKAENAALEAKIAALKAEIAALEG

4H454-AA = target: T46, 4H454-AA; conditions: mean of both orientations
T46 chain: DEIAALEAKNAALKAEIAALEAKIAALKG

interaction score (4H656-AA): 0.318 | interaction score (4H391-AA): -1.68 | interaction score (4H3417-AA): 0.336 | interaction score (4H478-AA): 0.524 | interaction score (4H497-AA): -1.9 | interaction score (4H428-AA): -0.935 | interaction score (4H3920-AA): -1.61 | interaction score (4H675-AA): -0.587 | interaction score (4H3628-AA): -1.29 | interaction score (4H971-AA): -1.03 | interaction score (4H3939-AA): -1.87 | interaction score (4H3591-AA): -1.37 | interaction score (4H3709-AA): -0.223 | interaction score (4H3666-AA): 1.09 | interaction score (4H3446-AA): -0.679
Binder: DKNAALEAKIAALKAENAALKAEIAALEG [4H3417-AA]

interaction score (4H2837-AA): 2.22 | interaction score (4H717-AA): -2.09 | interaction score (4H605-AA): 0.918 | interaction score (4H3655-AA): -1.76 | interaction score (4H3343-AA): -1.31 | interaction score (4H3427-AA): -0.774 | interaction score (4H3627-AA): 0.895 | interaction score (4H906-AA): -0.74 | interaction score (4H3844-AA): -1.39 | interaction score (4H317-AA): 1.65 | interaction score (4H2617-AA): 1.29 | interaction score (4H881-AA): 1.37 | interaction score (4H678-AA): 0.485 | interaction score (4H3606-AA): 2.03 | interaction score (4H2949-AA): 1.53 | interaction score (4H342-AA): 2.32 | interaction score (4H780-AA): -1.9 | interaction score (4H993-AA): -0.54 | interaction score (4H566-AA): 2.42 | interaction score (4H335-AA): 0.00978 | interaction score (4H48-AA): -0.511 | interaction score (4H3921-AA): 0.979 | interaction score (4H2754-AA): -1.08 | interaction score (4H3112-AA): -1.06 | interaction score (4H2944-AA): -0.31 | interaction score (4H794-AA): 1.15 | interaction score (4H2883-AA): -1.02 | interaction score (4H429-AA): 0.393 | interaction score (4H2642-AA): 2.25 | interaction score (4H2729-AA): 2.54 | interaction score (4H454-AA): 2.09
Binder: DKIAALKAEIAALEAKNAALKAEIAALEG [4H2617-AA]
